This data set deals with the molecule itself.

Where “and” joins values, the source holds several entries; their conditions need not be identical. Equal values may be shown once.

B1: M. tuberculosis ClpX (enzyme)
chain: not shown
Regarding B1, the “stoichiometry N” value was 6 and 2.
